In patent US20230012273A1 (Boehringer Ingelheim, published 2023):
Residue numbers refer to the chain shown, from its start.

T1: cynoSIRPα (EGM_02252), Extracellular Domain + His-Tag (cynomolgus monkey)
T1 construct: also called CySIRPα EGM_02252; not shown: His-Tag
T1 chain: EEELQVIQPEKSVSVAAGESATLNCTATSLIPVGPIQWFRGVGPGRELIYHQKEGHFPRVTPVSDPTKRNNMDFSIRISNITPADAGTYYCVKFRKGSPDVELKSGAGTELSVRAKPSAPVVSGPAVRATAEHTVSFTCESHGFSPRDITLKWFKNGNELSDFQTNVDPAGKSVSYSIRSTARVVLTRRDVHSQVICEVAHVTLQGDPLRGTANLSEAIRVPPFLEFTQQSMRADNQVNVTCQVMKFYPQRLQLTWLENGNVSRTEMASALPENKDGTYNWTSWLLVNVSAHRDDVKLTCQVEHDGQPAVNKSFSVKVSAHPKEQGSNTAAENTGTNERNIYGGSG

T2: cynoSIRPα (NP_001271679), Extracellular Domain + His-Tag (cynomolgus monkey)
T2 construct: also called CySIRPα NP_001271679; not shown: His-Tag
T2 chain: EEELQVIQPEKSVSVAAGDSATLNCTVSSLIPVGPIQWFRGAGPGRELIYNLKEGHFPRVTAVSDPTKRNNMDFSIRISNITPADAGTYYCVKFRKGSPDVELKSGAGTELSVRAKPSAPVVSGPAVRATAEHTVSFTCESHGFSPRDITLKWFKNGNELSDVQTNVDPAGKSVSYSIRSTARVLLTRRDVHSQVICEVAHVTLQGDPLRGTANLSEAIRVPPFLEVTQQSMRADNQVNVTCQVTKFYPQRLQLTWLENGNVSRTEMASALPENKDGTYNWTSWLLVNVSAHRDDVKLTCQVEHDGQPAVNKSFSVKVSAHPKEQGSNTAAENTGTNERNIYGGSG

T3: cynoSIRPα (XP_015313155), Extracellular Domain + His-Tag (cynomolgus monkey)
T3 construct: also called CySIRPα XP_015313155; not shown: His-Tag
T3 chain: T2 chain with A62P, V163F, L185V

B1: Antibody E9 (antibody, human IgG1, kappa, L234A L235A, V domains shown)
VH: QVQLQESGPGLVRPSETLSLTCTVSGGSIRNYYWSWIRQPPGKGLEWIGFIYYNGRTFYNPSLKSRVTISLDMSINQFSLKMTSVTAADTAVYYCARVRAYSGIGLDGTDVWGQGTTVTVSS
VL: DIVMTQSPLSLPVTPGEPASISCKSSQSLLYSNAYNYLDWYLQRPGQSPQLLIYLGSNRASGVPDRFSGSGSGTDFTLKISRVEAEDVGVYYCMQALQTPLTFGGGTKVEIKR
B2: Antibody E14 (antibody, human IgG1, kappa, L234A L235A, V domains shown)
VH: B1 VH with M73K, I75K
VL: B1 VL
B3: Antibody E13 (antibody, human IgG1, kappa, L234A L235A, V domains shown)
VH: B1 VH with N54T
VL: B1 VL with A34G, N36A, L55Q, Y91F
B4: Antibody E10 (antibody, human IgG1, kappa, L234A L235A, V domains shown)
VH: B1 VH with M73T, I75K
VL: B1 VL with A34G, N36A
B5: Antibody E18 (antibody, human IgG1, kappa, L234A L235A, V domains shown)
VH: B1 VH with N54T, I75K
VL: B1 VL with A34G, N36A
B6: Antibody E11 (antibody, human IgG1, kappa, L234A L235A, V domains shown)
VH: B1 VH with I48M, Y53D, I75M
VL: B1 VL with A34G, N36A
B7: Antibody E17 (antibody, human IgG1, kappa, L234A L235A, V domains shown)
VH: B1 VH with I48M, Y53D, I75M
VL: B1 VL
B8: Antibody E20 (antibody, human IgG1, kappa, L234A L235A, V domains shown)
VH: B1 VH with N54T
VL: B1 VL
B9: Antibody E15 (antibody, human IgG1, kappa, L234A L235A, V domains shown)
VH: B1 VH with N54T
VL: B1 VL with A34G, N36A
B10: Antibody E19 (antibody, human IgG1, kappa, L234A L235A, V domains shown)
VH: B1 VH with N54T, I75K
VL: B1 VL with A34G, N36A, L55Q, Y91F
B11: Antibody E12 (antibody, human IgG1, kappa, L234A L235A, V domains shown)
VH: B1 VH with I75K
VL: B1 VL
B12: Antibody E16 (antibody, human IgG1, kappa, L234A L235A, V domains shown)
VH: B1 VH with M73T, I75K
VL: B1 VL

Columns and labels:
[1] = target: T1, cynoSIRPα (EGM_02252), Extracellular …; assay: SPR, antibody captured on Protein A/G, ECD-His analyte
Description: (§1) The binding kinetics of anti-SIRPα antibodies to various SIRPα analytes are determined by surface plasmon resonance (SPR) using a Biacore 8K+(Cytiva). 1×HBS-EP+(Cytiva) is used as running buffer and for all the dilutions unless stated otherwise. The Series S CM5 sensorchip is activated with a 1:1 mixture of 0.1 M NHS (N-hydroxysuccinimide) and 0.4 M EDC (1-Ethyl-3-(3-dimethylaminopropyl) carbodiimide hydrochloride) for 420 seconds at a flow rate of 10 μl/min and immobilized with Protein A/G (Thermo Scientific, 10 μg/ml in 10 mM acetate pH 4.5) for 420 seconds at a flowrate of 10 μl/min resulting in approximately 3000 RU of Protein A/G on the surface. The sensorchip is then deactivated with 1 M ethanolamine HCl pH 8.5 for 420 seconds at a flowrate of 10 μl/min.
(§2) Antibodies (approximately 1 ug/ml) are captured on the Protein A/G surface for 60 seconds at a flowrate of 10 μl/min resulting in capture levels of approximately 240 RU. Dilutions of each SIRP protein (Extracellular Domain+His-Tag, with the concentrations as indicated) are injected as analytes over the captured antibody for 300 seconds of association at a flowrate of 30 μl/min, followed by a dissociation for 600 seconds.

[2] = target: T4, Human SIRPαV2 (CAA71403.1), Extracellular Domain + His-Tag (human, UniProt P78324 31-373); assay: SPR, antibody captured on Protein A/G, ECD-His analyte, 1:1 fit
T4 construct: also called huSIRPαV2; hSIRPαV2; not shown: His-Tag
T4 sequence (P78324 other isoform, or with tags, fused parts or gaps): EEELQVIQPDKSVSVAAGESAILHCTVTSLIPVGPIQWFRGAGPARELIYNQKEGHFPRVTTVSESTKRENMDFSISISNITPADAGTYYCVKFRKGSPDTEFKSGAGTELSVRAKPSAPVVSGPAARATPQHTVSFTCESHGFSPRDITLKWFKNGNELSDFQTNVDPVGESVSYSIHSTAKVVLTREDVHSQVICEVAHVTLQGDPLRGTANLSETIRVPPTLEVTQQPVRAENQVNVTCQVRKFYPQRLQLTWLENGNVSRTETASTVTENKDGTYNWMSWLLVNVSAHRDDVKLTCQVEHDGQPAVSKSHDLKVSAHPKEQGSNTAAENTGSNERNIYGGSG
Description: as §1, §2
(§3) The above procedures are used to measure binding properties of antibodies of the present disclosure. For each analyte used, the highest concentration was as indicated in Example 3 (see Table 36).

[3] = target: T2, cynoSIRPα (NP_001271679), Extracellular …; assay: as above
Description: as §1, §2, §3

[4] = target: T5, Human SIRPαV1 (NP_542970.1), Extracellular Domain + His-Tag (human, UniProt P78324 31-373); assay: as above
T5 construct: also called huSIRPαV1; hSIRPαV1; not shown: His-Tag
T5 sequence (P78324 other isoform, or with tags, fused parts or gaps): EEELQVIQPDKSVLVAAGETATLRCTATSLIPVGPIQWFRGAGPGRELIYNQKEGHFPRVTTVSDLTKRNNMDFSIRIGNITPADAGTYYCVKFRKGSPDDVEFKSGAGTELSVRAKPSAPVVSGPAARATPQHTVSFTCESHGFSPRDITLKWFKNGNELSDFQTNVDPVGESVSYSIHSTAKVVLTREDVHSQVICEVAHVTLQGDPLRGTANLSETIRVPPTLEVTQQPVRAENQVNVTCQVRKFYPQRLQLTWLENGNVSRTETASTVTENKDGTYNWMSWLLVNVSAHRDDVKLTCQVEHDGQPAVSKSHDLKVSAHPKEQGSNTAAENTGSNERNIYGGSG
Description: as §1, §2, §3

[5] = target: T3, cynoSIRPα (XP_015313155), Extracellular …; assay: as above
Description: as §1, §2, §3

Binder	binding result [1]	Kd [2]	koff [2]	kon [2]	Kd [3]	koff [3]	kon [3]	Kd [4]	koff [4]	kon [4]	Kd [5]	koff [5]	kon [5]
B1	no binding (tested: 1000 nM)	0.94 nM	0.000548 s⁻¹	583000 M⁻¹ s⁻¹	43.7 nM	0.014 s⁻¹	321000 M⁻¹ s⁻¹	1.22 nM	0.000631 s⁻¹	518000 M⁻¹ s⁻¹	40.8 nM	0.0132 s⁻¹	324000 M⁻¹ s⁻¹
B2	no binding (tested: 1000 nM)	1.36 nM	0.000615 s⁻¹	453000 M⁻¹ s⁻¹	90.7 nM	0.0173 s⁻¹	190000 M⁻¹ s⁻¹	1.84 nM	0.000743 s⁻¹	403000 M⁻¹ s⁻¹	86.3 nM	0.0173 s⁻¹	200000 M⁻¹ s⁻¹
B3	no binding (tested: 1000 nM)	0.69 nM	0.000338 s⁻¹	490000 M⁻¹ s⁻¹	38.3 nM	0.00755 s⁻¹	197000 M⁻¹ s⁻¹	1.7 nM	0.000671 s⁻¹	394000 M⁻¹ s⁻¹	37.4 nM	0.00711 s⁻¹	190000 M⁻¹ s⁻¹
B4	no binding (tested: 1000 nM)	1.2 nM	0.000596 s⁻¹	498000 M⁻¹ s⁻¹	25.2 nM	0.00545 s⁻¹	216000 M⁻¹ s⁻¹	1.23 nM	0.000518 s⁻¹	422000 M⁻¹ s⁻¹	23.7 nM	0.00526 s⁻¹	222000 M⁻¹ s⁻¹
B5	no binding (tested: 1000 nM)	0.9 nM	0.000443 s⁻¹	493000 M⁻¹ s⁻¹	52.5 nM	0.0118 s⁻¹	224000 M⁻¹ s⁻¹	2.46 nM	0.00101 s⁻¹	410000 M⁻¹ s⁻¹	50 nM	0.0113 s⁻¹	226000 M⁻¹ s⁻¹
B6	no binding (tested: 1000 nM)	0.57 nM	0.000258 s⁻¹	453000 M⁻¹ s⁻¹	20.3 nM	0.00542 s⁻¹	267000 M⁻¹ s⁻¹	1.41 nM	0.000498 s⁻¹	352000 M⁻¹ s⁻¹	20 nM	0.00549 s⁻¹	275000 M⁻¹ s⁻¹
B7	no binding (tested: 1000 nM)	0.8 nM	0.000405 s⁻¹	508000 M⁻¹ s⁻¹	44.8 nM	0.0126 s⁻¹	282000 M⁻¹ s⁻¹	2.36 nM	0.000955 s⁻¹	405000 M⁻¹ s⁻¹	43.2 nM	0.0126 s⁻¹	292000 M⁻¹ s⁻¹
B8	no binding (tested: 1000 nM)	1.11 nM	0.000627 s⁻¹	563000 M⁻¹ s⁻¹	111 nM	0.0278 s⁻¹	251000 M⁻¹ s⁻¹	3.42 nM	0.00164 s⁻¹	480000 M⁻¹ s⁻¹	104 nM	0.0261 s⁻¹	251000 M⁻¹ s⁻¹
B9	no binding (tested: 1000 nM)	0.74 nM	0.000369 s⁻¹	501000 M⁻¹ s⁻¹	49.4 nM	0.012 s⁻¹	243000 M⁻¹ s⁻¹	1.91 nM	0.000802 s⁻¹	421000 M⁻¹ s⁻¹	46.2 nM	0.0113 s⁻¹	245000 M⁻¹ s⁻¹
B10	no binding (tested: 1000 nM)	0.97 nM	0.000399 s⁻¹	411000 M⁻¹ s⁻¹	46.6 nM	0.00725 s⁻¹	156000 M⁻¹ s⁻¹	2.52 nM	0.000843 s⁻¹	334000 M⁻¹ s⁻¹	44.7 nM	0.00687 s⁻¹	154000 M⁻¹ s⁻¹
B11	no binding (tested: 1000 nM)	1.26 nM	0.000709 s⁻¹	562000 M⁻¹ s⁻¹	46.1 nM	0.0129 s⁻¹	279000 M⁻¹ s⁻¹	1.67 nM	0.000819 s⁻¹	490000 M⁻¹ s⁻¹	42.2 nM	0.0125 s⁻¹	297000 M⁻¹ s⁻¹
B12	no binding (tested: 1000 nM)	1.93 nM	0.00105 s⁻¹	547000 M⁻¹ s⁻¹	50 nM	0.0158 s⁻¹	313000 M⁻¹ s⁻¹	2.15 nM	0.00106 s⁻¹	490000 M⁻¹ s⁻¹	48.8 nM	0.0147 s⁻¹	300000 M⁻¹ s⁻¹
